These results are taken from IntAct's records for PubMed 10376594.

B1: Apoptotic protease-activating factor 1 (Homo sapiens), O14727 (parent)
chain: MDAKARNCLLQHREALEKDIKTSYIMDHMISDGFLTISEEEKVRNEPTQQQRAAMLIKMILKKDNDSYVSFYNALLHEGYKDLAALLHDGIPVVSSSSGKDSVSGITSYVRTVLCEGGVPQRPVVFVTRKKLVNAIQQKLSKLKGEPGWVTIHGMAGCGKSVLAAEAVRDHSLLEGCFPGGVHWVSVGKQDKSGLLMKLQNLCTRLDQDESFSQRLPLNIEEAKDRLRILMLRKHPRSLLILDDVWDSWVLKAFDSQCQILLTTRDKSVTDSVMGPKYVVPVESSLGKEKGLEILSLFVNMKKADLPEQAHSIIKECKGSPLVVSLIGALLRDFPNRWEYYLKQLQNKQFKRIRKSSSYDYEALDEAMSISVEMLREDIKDYYTDLSILQKDVKVPTKVLCILWDMETEEVEDILQEFVNKSLLFCDRNGKSFRYYLHDLQVDFLTEKNCSQLQDLHKKIITQFQRYHQPHTLSPDQEDCMYWYNFLAYHMASAKMHKELCALMFSLDWIKAKTELVGPAHLIHEFVEYRHILDEKDCAVSENFQEFLSLNGHLLGRQPFPNIVQLGLCEPETSEVYQQAKLQAKQEVDNGMLYLEWINKKNITNLSRLVVRPHTDAVYHACFSEDGQRIASCGADKTLQVFKAETGEKLLEIKAHEDEVLCCAFSTDDRFIATCSVDKKVKIWNSMTGELVHTYDEHSEQVNCCHFTNSSHHLLLATGSSDCFLKLWDLNQKECRNTMFGHTNSVNHCRFSPDDKLLASCSADGTLKLWDATSANERKSINVKQFFLNLEDPQEDMEVIVKCCSWSADGARIMVAAKNKIFLFDIHTSGLLGEIHTGHHSTIQYCDFSPQNHLAVVALSQYCVELWNTDSRSKVADCRGHLSWVHGVMFSPDGSSFLTSSDDQTIRLWETKKVCKNSAVMLKQEVDVVFQENEVMVLAVDHIRRLQLINGRTGQIDYLTEAQVSCCCLSPHLQYIAFGDENGAIEILELVNNRIFQSRFQHKKTVWHIQFTADEKTLISSSDDAEIQVWNWQLDKCIFLRGHQETVKDFRLLKNSRLLSWSFDGTVKVWNIITGNKEKDFVCHQGTVLSCDISHDATKFSSTSADKTAKIWSFDLLLPLHELRGHNGCVRCSAFSVDSTLLATGDDNGEIRIWNVSNGELLHLCAPLSEEGAATHGGWVTDLCFSPDGKMLISAGGYIKWWNVVTGESSQTFYTNGTNLKKIHVSPDFKTYVTVDNLGILYILQTLE
B2: Caspase-9 (Homo sapiens), P55211 (parent)
chain: MDEADRRLLRRCRLRLVEELQVDQLWDALLSRELFRPHMIEDIQRAGSGSRRDQARQLIIDLETRGSQALPLFISCLEDTGQDMLASFLRTNRQAAKLSKPTLENLTPVVLRPEIRKPEVLRPETPRPVDIGSGGFGDVGALESLRGNADLAYILSMEPCGHCLIINNVNFCRESGLRTRTGSNIDCEKLRRRFSSLHFMVEVKGDLTAKKMVLALLELAQQDHGALDCCVVVILSHGCQASHLQFPGAVYGTDGCPVSVEKIVNIFNGTSCPSLGGKPKLFFIQACGGEQKDHGFEVASTSPEDESPGSNPEPDATPFQEGLRTFDQLDAISSLPTPSDIFVSYSTFPGFVSWRDPKSGSWYVETLDDIFEQWAHSEDLQSLLLRVANAVSVKGIYKQMPGCFNFLRKKLFFKTS

One test covers variants of B1. To be noted: with casp9_human CASP9, P55211.
With D27A, the “effect of a mutation on the interaction” value was “disrupting interaction”. Same read-out and setting: with E40A the entry was “disrupting interaction”; with S31A, “decreasing interaction”.

Variants of B2 are the subject of a further test. The settings on record: with apaf_human APAF1, O14727.
For the variant R13A, the “effect of a mutation on the interaction” value is “disrupting interaction”. In the case of R52A, the “effect of a mutation on the interaction” value is listed as “decreasing interaction”. For the variant R56A, the “effect of a mutation on the interaction” value is “disrupting interaction”.

Turning to R11A, the “effect of a mutation on the interaction” value is on record as “decreasing interaction”.
